According to patent US20260200999A1, “SYNTHETIC TRANSCRIPTION FACTORS” (ETH ZURICH, priority 2022, published 2026):

System: Response Element-driven mCerulean reporter (MTERF1 binding sites, SEQ ID NO: 42)
Assay: mCerulean reporter co-transfection with HumTAP constructs in HEK293 cells (flow cytometry)
Type: cell-based, human
Conditions: HEK293; for reporter (mCerulean) expression: TAD fused to MTERF158-399, pEF1a-driven, Example 4, FIG. 9B, C
Excerpt: To construct a promoter with Response Elements/MTERF1 binding sites driving the gene of interest, the inventors placed MTERF1 binding sites (SEQ ID NO: 42) upstream a minimal TATA box (SEQ ID NO: 103). An mCerulean fluorescent reporter representing the gene of interest (Gol) was placed downstream of the TATA box. Each of these is referred to as a reporter construct. Five different reporter constructs were made comprising respectively 3, 5, 7, 9, and 11 MTERF1 binding sites 6 base pairs apart upstream of the TATA box (FIG. 1A; SEQ ID NO: 41, 44, 45, 46 and 47, respectively). They were co-transfected with the MTF construct into Hela cells. […] Using flow cytometry, relative mCerulean levels were measured and calculated by normalization to the transfection control in Hela cells (FIG. 1C). […] Next, reporter plasmids with varying spacer lengths (0, 6 bp and 10 bp; SEQ ID NO: 48, 44 and 49, respectively) (FIG. 1F) between a fixed number of REs (i.e. 5 REs/MTERF1 binding sites) were transfected with the MTF construct. […] This was confirmed using flow cytometry (FIG. 1H). […]
With the goal to engineer stronger and possibly shorter HumTAPs, the inventors fused the MTERF158-399 peptide (SEQ ID NO: 1) to a variety of transactivation domains and transfected HEK293 cells with those constructs and the reporter construct comprising 5×RE/MTERF1 binding sites without a spacer between them (SEQ ID NO: 48).
First, MTERF158-399 (SEQ ID NO: 1) was fused with different subsequences of RelA. RelA361-551 (SEQ ID NO: 27) corresponds to the sequence used in the construction of the bacterial-derived synthetic TF PIT2 [19], while RelA342-551 (SEQ ID NO: 29) contains all annotated transactivation domains according to domain annotation under Uniprot Q04206 (https://www.uniprot.org/uniprotkb/Q04206/entry). […] We also fused MTERF158-399 (SEQ ID NO: 1) to a set of transactivation domains previously found to be strong activators with a small genetic footprint (FIG. 4B).
To further decrease the DNA footprint of a HumTAP, the inventors investigated to what degree the DNA binding domain may be reduced. To this end, the inventors created 3 versions of MTERF1 subsequences fused to RelA430-551 (SEQ ID NO: 3). MTERF173-399 (SEQ ID NO: 7), MTERF1104-399 (SEQ ID NO: 9), and MTERF1135-399 (SEQ ID NO: 11) are subunits of MTERF1 without its mitochondrial transfer peptide (MTERF11-57; SEQ ID NO: 37) that either lack only the first […] N-terminal amino acids (MTERF58-72; SEQ ID NO: 39) or additionally, also lack the first (MTERF173-98; SEQ ID NO: 104) or both the first and second (MTERF1104-134; SEQ ID NO: 106) mterf motifs (FIG. 5A). The removal of N-terminal domains reduces the genetic footprint of a HumTAP (FIG. 5B). These constructs were co-transfected into HEK293 cells with the reporter construct containing 5×RE without a spacer in its promoter (SEQ ID NO: 48).
In addition to RelA430-551 (termed “v1”), the inventors tested three alternative subsequences: v2) RelA342-551 (SEQ ID NO: 29), which contains all transactivation domains as annotated on UniProt Q04206; v3) RelA361-551 (SEQ ID NO: 27), which is identical to the peptide used in the construction of PIT2 [2]; and v4) RelA521-551 (SEQ ID NO: 31), which constitutes only the transactivation domain 1 (TA1). The protein domains WW (SEQ ID NO: 21), KRAB of ZNF473 (SEQ ID NO: 23), Nuc-rec-co-Act (SEQ ID NO: 25), LMSTEN (SEQ ID NO: 19), and FoxoTAD (SEQ ID NO: 17) were recently identified as strong transactivators. To assess their functionality in the HumTAP context, the inventors created fusion proteins between each of them and MTERF158-399 (SEQ ID NO: 1) (FIG. 9A).
Upon co-transfection of HEK293 cells with plasmids encoding pEF1a-driven expression of the fusion HumTAPs, a Response Element-driven mCerulean reporter protein, and a mCherry transfection control, all peptides derived from RelA except TA1 mediated high levels of reporter gene expression. […]

B1: SEQ ID NO: 58: MTERF158-399 fused to FoxoTAD with TA1 (protein)
chain: HEKFPSDLDLDMFNGSLECDMESIIRSELMDADGLDFNFDSPGLPNGLLSGDEDFSSIADMDFSALLSQISS
In the case of B1, the “reporter (mCerulean) expression” value is reported as “smaller and stronger than the benchmark”.

B2: SEQ ID NO: 52: MTERF158-399 fused to chimeric TAD consisting of FoxoTAD, LMSTEN, and TA1 (protein)
chain: HEKFPSDLDLDMFNGSLECDMESIIRSELMDADGLDFNFDSEAQNVSSHVPYPVALHVNIVNVPQPAAAAIQRHYNDEDPEKEKRIKELELLLMSTENELKGQQVLPTQNHTCSYPGWHSTPGLPNGLLSGDEDFSSIADMDFSALLSQISS
In the case of B2, the “reporter gene expression relative to RelA430-551” value (fused to MTERF158-399, FIG. 9C) is reported as 3.7 times.

B3: SEQ ID NO: 194: MTERF158-399 fused to three TA1 domains (protein)
chain: PGLPNGLLSGDEDFSSIADMDFSALLSQISSPGLPNGLLSGDEDFSSIADMDFSALLSQISSPGLPNGLLSGDEDFSSIADMDFSALLSQISS
With B3 the “reporter (mCerulean) expression” value was “further increased output expression”.

B4: SEQ ID NO: 196: MTERF158-399 fused to two copies of the LMSTEN domain (protein)
chain: EAQNVSSHVPYPVALHVNIVNVPQPAAAAIQRHYNDEDPEKEKRIKELELLLMSTENELKGQQVLPTQNHTCSYPGWHSTEAQNVSSHVPYPVALHVNIVNVPQPAAAAIQRHYNDEDPEKEKRIKELELLLMSTENELKGQQVLPTQNHTCSYPGWHST
B4 was tested, and the “mCerulean/reporter expression, fold more than one copy of the TAD” value (two copies of TAD fused to MTERF158-399, Example 4, FIG. 9C) was ~ 2.7 fold.

B5: MTERF1104-399 with FoxoTAD: FoxoTAD: MTERF1104-399 (SEQ ID NO: 9) fused to FoxoTAD: FoxoTAD (SEQ ID NO: 33) (protein, listed as Homo sapiens)
chain: EQDLKMFLLSKGASKEVIASIISRYPRAITRTPENLSKRWDLWRKIVTSDLEIVNILERSPESFFRSNNNLNLENNIKFLYSVGLTRKCLCRLLTNAPRTFSNSLDLNKQMVEFLQAAGLSLGHNDPADFVRKIIFKNPFILIQSTKRVKANIEFLRSTFNLNSEELLVLICGPGAEILDLSNDYARRSYANIKEKLFSLGCTEEEVQKFVLSYPDVIFLAEKKFNDKIDCLMEENISISQIIENPRVLDSSISTLKSRIKELVNAGCNLSTLNITLLSWSKKRYEAKLKKLSRFAHEKFPSDLDLDMFNGSLECDMESIIRSELMDADGLDFNFDSHEKFPSDLDLDMFNGSLECDMESIIRSELMDADGLDFNFDS
In the case of B5, the “strength / reporter gene expression, fold over MTF” value (chimeric TAD fused to MTERF1104-399, FIG. 9F) is reported as ~ 1.5 fold.

B6: SEQ ID NO: 56: MTERF158-399 fused to LMSTEN with TA1 (protein)
chain: EAQNVSSHVPYPVALHVNIVNVPQPAAAAIQRHYNDEDPEKEKRIKELELLLMSTENELKGQQVLPTQNHTCSYPGWHSTPGLPNGLLSGDEDFSSIADMDFSALLSQISS
For B6, the “reporter (mCerulean) expression” value was “smaller and stronger than the benchmark”.

B7: SEQ ID NO: 54: MTERF158-399 fused to FoxoTAD with LMSTEN (protein)
chain: HEKFPSDLDLDMFNGSLECDMESIIRSELMDADGLDFNFDSEAQNVSSHVPYPVALHVNIVNVPQPAAAAIQRHYNDEDPEKEKRIKELELLLMSTENELKGQQVLPTQNHTCSYPGWHST
For B7, the “reporter (mCerulean) expression” value was “smaller and stronger than the benchmark”.
